# Assay results reported in article PMC10511561, “Synergism between CMG helicase and leading strand DNA polymerase at replication fork” (Nature Communications, 2023).
# T1: Mcm4 (subunit of CMG) (yeast, UniProt P30665 1-933)
# T1 construct: Mcm4, yeast; Chain of m1 as it stands in the replisome structure; source: yeast strain yJCZ2, purified as part of CMG (anti-FLAG M2 resin, Mono Q, Superose 6)
# T1 sequence: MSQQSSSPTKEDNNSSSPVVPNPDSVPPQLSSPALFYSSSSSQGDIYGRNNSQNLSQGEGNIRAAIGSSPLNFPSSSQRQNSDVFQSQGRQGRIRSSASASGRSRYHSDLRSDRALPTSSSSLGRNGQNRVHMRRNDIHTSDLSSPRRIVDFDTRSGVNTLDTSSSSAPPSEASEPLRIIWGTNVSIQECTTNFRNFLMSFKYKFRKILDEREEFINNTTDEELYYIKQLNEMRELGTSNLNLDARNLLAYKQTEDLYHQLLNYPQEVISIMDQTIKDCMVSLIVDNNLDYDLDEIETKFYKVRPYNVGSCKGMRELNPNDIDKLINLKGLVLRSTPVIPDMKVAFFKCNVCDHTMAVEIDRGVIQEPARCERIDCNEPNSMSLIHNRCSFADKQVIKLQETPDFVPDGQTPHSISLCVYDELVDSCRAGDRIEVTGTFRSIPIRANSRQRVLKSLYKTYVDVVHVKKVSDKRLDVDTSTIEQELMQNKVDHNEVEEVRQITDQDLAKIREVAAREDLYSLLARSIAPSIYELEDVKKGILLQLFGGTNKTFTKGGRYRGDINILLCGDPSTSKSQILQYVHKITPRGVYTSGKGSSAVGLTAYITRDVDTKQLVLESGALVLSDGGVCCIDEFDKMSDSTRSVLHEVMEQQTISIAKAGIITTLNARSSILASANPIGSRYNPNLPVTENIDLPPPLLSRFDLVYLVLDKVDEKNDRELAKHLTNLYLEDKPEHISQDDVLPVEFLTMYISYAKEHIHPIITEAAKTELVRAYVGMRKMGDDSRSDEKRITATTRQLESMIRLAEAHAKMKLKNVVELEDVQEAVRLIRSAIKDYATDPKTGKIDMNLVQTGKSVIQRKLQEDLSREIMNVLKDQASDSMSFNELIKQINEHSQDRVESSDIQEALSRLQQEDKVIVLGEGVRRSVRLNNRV
# B1: Mcm7 (subunit of CMG) (natural protein, yeast)
# chain: MSAALPSIQLPVDYNNLFNEITDFLVTFKQDTLSSDATRNENEDENLDAENIEQHLLEKGPKYMAMLQKVANRELNSVIIDLDDILQYQNEKFLQGTQADDLVSAIQQNANHFTELFCRAIDNNMPLPTKEIDYKDDVLDVILNQRRLRNERMLSDRTNEIRSENLMDTTMDPPSSMNDALREVVEDETELFPPNLTRRYFLYFKPLSQNCARRYRKKAISSKPLSVRQIKGDFLGQLITVRGIITRVSDVKPAVEVIAYTCDQCGYEVFQEVNSRTFTPLSECTSEECSQNQTKGQLFMSTRASKFSAFQECKIQELSQQVPVGHIPRSLNIHVNGTLVRSLSPGDIVDVTGIFLPAPYTGFKALKAGLLTETYLEAQFVRQHKKKFASFSLTSDVEERVMELITSGDVYNRLAKSIAPEIYGNLDVKKALLLLLVGGVDKRVGDGMKIRGDINVCLMGDPGVAKSQLLKAICKISPRGVYTTGKGSSGVGLTAAVMKDPVTDEMILEGGALVLADNGICCIDEFDKMDESDRTAIHEVMEQQTISISKAGINTTLNARTSILAAANPLYGRYNPRLSPLDNINLPAALLSRFDILFLMLDIPSRDDDEKLAEHVTYVHMHNKQPDLDFTPVEPSKMREYIAYAKTKRPVMSEAVNDYVVQAYIRLRQDSKREMDSKFSFGQATPRTLLGIIRLSQALAKLRLADMVDIDDVEEALRLVRVSKESLYQETNKSKEDESPTTKIFTIIKKMLQETGKNTLSYENIVKTVRLRGFTMLQLSNCIQEYSYLNVWHLINEGNTLKFVDDGTMDTDQEDSLVSTPKLAPQTTASANVSAQDSDIDLQDA
# notes: Mcm7, yeast; Chain of m1 as it stands in the replisome structure; source: yeast strain yJCZ2, purified as part of CMG (anti-FLAG M2 resin, Mono Q, Superose 6)
# B2: Ctf4 homotrimer (natural protein, yeast)
# chain: MVSVIDKLVFDFGGKTLVSLAPDNNTLCVANKNGLTKILKTNNPEEEPETLDSSKLVSSIKCYSNSHFLMTTMQGDALRYNIDSSQEELLARFALPLRDCCVIHSGKMAVFGGDDLELILLELDDETHKKHAIKIDEQVSQISYNSQMNILAVSMINGKVQIFSLTSTIPNKVHELNDYIVANSYDDTHRDKILSNMMDDIDKDNDNDLSETADPDENNVADPEFCAANRICTRVAWHPKGLHFALPCADDTVKIFSIKGYSLQKTLSTNLSSTKAHFIDLQFDPLRGTYIAAVDLNNKLTVWNWETSEIHYTREFKRKITNIAWKIQADSKTLDLVLGTWSGSIAIVQNLAESVVSNIPDQSVAESSTKHGLFVDSESDLENLEGNDDINKSDKLFSDITQEANAEDVFTQTHDGPSGLSEKRKYNFEDEEDFIDDDDGAGYISGKKPHNEHSYSRVHKTHSFPISLANTGKFRYMPFSPAGTPFGFTDRRYLTMNEVGYVSTVKNSEQYSITVSFFDVGRFREYHFEDLFGYDLCFLNEKGTLFGQSKTGQIQYRPHDSIHSNWTKIIPLQAGERITSVAATPVRVIVGTSLGYFRSFNQFGVPFAVEKTSPIVALTAQNYRVFSVHYSQFHGLSYSLSELGTSSKRYYKRECPLPMSLPNINSDMKKDANLDYYNFNPMGIKSLFFSSYGDPCIFGSDNTLLLLSKWRSPEESKWLPILDSNMEIWKMSGGKETTDIHVWPLALAYDTLNCILVKGKHIWPEFPLPLPSEMEIRMPVFVKSKLLEENKAILNKKNEIGADTEAEEGEEDKEIQIPVSMAAEEEYLRSKVLSELLTDTLENDGEMYGNENEVLAALNGAYDKALLRLFASACSDQNVEKALSLAHELKQDRALTAAVKISERAELPSLVKKINNIREARYEQQLK
# notes: Ctf4, yeast; also called Ctf4 trimer; source: E. coli BL21(DE3) Rosetta (pXZ1), purified (Ni-NTA, sumo protease, Ni-NTA, Mono Q, Superose 6)
# Key:
# Assay in all cases: cryo-EM structure; replisome assembled at room temperature from 0.7 uM CMG, forked DNA and ATPγS, then 1.5 molar excess of Polε, Ctf4, Tof1-Csm3; 100 mM KCl, 25 mM HEPES pH 7.6, 4 mM MgCl2, 4 mM ATPγS; 10-30% glycerol gradient with glutaraldehyde fixation; States I-VI by 3D classification
# Mcm4 (subunit of CMG) = molecular target: T1, Mcm4 (subunit of CMG); details: both partners purified
# Mcm3 (subunit of CMG) = molecular target: T2, Mcm3 (subunit of CMG) (yeast, UniProt P24279 1-971); details: both partners purified
# T2 construct: Mcm3, yeast; Chain of m1 as it stands in the replisome structure; source: yeast strain yJCZ2, purified as part of CMG (anti-FLAG M2 resin, Mono Q, Superose 6)
# T2 sequence (P24279 whole entry): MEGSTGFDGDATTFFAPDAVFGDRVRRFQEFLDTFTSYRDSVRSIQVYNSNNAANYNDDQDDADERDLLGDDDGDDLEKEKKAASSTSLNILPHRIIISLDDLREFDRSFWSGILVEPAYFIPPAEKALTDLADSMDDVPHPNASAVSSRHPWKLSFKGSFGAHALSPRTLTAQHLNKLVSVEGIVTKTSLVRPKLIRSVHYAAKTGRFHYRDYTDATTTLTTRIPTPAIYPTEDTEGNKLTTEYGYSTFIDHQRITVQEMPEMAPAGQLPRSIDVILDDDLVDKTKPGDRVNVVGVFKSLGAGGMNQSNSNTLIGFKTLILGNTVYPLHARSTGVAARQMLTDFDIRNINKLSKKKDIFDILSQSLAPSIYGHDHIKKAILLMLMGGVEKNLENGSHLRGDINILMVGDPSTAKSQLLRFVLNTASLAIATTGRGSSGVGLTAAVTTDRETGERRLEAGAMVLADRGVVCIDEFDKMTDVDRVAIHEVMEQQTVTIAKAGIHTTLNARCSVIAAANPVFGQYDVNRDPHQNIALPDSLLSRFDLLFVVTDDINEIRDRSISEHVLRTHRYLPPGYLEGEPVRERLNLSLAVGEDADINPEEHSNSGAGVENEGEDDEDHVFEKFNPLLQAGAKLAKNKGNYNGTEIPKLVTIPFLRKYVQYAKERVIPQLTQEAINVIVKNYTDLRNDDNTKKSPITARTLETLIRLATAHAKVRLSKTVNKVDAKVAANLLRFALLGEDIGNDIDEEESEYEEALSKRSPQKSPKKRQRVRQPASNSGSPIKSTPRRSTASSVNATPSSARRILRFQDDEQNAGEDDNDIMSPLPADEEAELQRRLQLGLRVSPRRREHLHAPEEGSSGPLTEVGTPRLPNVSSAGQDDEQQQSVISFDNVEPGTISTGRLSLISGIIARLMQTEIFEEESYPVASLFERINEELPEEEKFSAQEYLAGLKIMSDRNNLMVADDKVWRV
# Tof1-Csm3 = molecular target: T3, Tof1-Csm3 (yeast, UniProt P53840 1-1238; Q04659 1-317); details: both partners purified
# T3 construct: Tof1, yeast; Csm3, yeast; Purified beforehand as one complex; also called Tof1 and Csm3; components of the fork protection complex (FPC); source: yeast strain yAE48, galactose-induced, purified (calmodulin resin, TEV elution, Mono Q, Superose 6); not shown: CBP, N-terminal, cleaved
# T3 sequence (P53840 whole entry, chain 1 of 2): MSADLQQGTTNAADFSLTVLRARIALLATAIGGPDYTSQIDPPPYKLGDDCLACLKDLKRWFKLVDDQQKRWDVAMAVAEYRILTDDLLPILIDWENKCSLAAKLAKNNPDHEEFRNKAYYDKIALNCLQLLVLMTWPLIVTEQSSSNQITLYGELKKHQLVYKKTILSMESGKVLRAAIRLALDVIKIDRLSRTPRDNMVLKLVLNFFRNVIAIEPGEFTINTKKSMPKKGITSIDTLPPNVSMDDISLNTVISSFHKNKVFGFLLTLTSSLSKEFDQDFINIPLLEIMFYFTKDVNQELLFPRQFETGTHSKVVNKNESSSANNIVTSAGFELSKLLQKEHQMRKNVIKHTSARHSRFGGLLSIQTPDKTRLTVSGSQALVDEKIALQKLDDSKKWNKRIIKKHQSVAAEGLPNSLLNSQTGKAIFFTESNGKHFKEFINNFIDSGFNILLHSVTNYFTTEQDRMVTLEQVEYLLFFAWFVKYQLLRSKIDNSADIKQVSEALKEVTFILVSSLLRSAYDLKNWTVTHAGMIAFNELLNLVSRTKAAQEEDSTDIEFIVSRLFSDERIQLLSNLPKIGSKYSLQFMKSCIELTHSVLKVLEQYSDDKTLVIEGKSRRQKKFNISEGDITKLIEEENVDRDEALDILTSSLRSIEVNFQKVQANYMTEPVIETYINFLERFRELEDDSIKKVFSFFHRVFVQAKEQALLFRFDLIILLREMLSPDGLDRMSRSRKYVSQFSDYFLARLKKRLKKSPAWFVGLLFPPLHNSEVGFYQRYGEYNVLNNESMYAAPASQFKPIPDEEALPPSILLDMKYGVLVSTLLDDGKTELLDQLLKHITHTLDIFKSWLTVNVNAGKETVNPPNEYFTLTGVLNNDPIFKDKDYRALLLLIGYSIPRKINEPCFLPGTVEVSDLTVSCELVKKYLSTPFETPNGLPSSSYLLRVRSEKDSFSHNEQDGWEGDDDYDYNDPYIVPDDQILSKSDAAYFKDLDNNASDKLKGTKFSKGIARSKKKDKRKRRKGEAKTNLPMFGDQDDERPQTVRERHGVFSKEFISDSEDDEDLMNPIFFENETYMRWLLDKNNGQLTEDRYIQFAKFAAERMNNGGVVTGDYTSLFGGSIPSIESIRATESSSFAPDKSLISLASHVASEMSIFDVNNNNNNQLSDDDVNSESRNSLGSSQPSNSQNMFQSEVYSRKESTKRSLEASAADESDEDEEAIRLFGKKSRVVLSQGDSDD
# T3 sequence (Q04659 whole entry, chain 2 of 2): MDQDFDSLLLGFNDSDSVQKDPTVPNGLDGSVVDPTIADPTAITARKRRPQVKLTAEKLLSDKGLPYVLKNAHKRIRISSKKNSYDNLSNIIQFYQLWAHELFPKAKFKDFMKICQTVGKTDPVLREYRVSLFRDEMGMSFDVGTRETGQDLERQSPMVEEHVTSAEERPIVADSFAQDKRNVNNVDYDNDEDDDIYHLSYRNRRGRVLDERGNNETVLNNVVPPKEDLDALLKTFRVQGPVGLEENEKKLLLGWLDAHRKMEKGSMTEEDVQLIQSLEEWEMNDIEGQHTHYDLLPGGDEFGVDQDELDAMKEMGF
# [1] = molecular target: the molecule itself
Binder,binding result (Mcm4 (subunit of CMG)),binding result (Mcm3 (subunit of CMG)),binding result (Tof1-Csm3),stoichiometry N [1]
B1,binds,binds,binds,–
B2,–,–,–,3
